Source: patent US20260049138A1 (Chugai, published 2026)

Molecular target: T1, CD3ε homodimer protein (human, UniProt P07766 23-126, limits assumed)
T1 construct: also called CD3 (CD3ε)
Assay: SPR Biacore T200, CD3ε homodimer on chip;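 note: Light-chain single-residue variant antibodies injected over amine-coupled CD3ε homodimer on a CM4 chip at 25 °C, bound amount divided by that of the GLS3000-containing antibody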

T1 sequence (P07766 23-126 limits assumed): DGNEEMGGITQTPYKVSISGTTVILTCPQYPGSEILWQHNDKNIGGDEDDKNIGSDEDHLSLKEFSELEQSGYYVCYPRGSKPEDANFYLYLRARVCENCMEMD

Binder | ratio of amount bound vs unaltered GLS3000
GLS3000 V94I one-arm antibody (antibody, human IgG1, kappa, L234A L235A, N297A, name in Kabat numbering) heavy: QVQLVESGGGVVQPGRSLRLSCAASGFTFSNAWMHWVRQAPGKGLEWVAQIKAKSNNYATYYAESVKGRFTISRDDSKNSLYLQMNSLKTEDTAVYYCRYVHYGAYYGVDAWGQGTTVTVSSASTKGPSVFPLAPSSKSTSGGTAALGCLVKDYFPEPVTVSWNSGALTSGVHTFPAVLQSSGLYSLSSVVTVPSSSLGTQTYICNVNHKPSNTKVDKKVEPKSCDKTHTCPPCPAPEAAGGPSVFLFPPKPKDTLMISRTPEVTCVVVDVSHEDPEVKFNWYVDGVEVHNAKTKPREEQYASTYRVVSVLTVLHQDWLNGKEYKCKVSNKALPAPIEKTISKAKGQPREPQVYTLPPSRCELTKNQVSLSCAVKGFYPSDIAVEWESNGQPENNYKTTPPVLDSDGSFFLVSKLTVDKSRWQQGNVFSCSVMHEALHNHYTQKSLSLSPDYKDDDDK EPKSSDKTHTCPPCPAPELLGGPSVFLFPPKPKDTLMISRTPEVTCVVVDVSHEDPEVKFNWYVDGVEVHNAKTKPREEQYNSTYRVVSVLTVLHQDWLNGKEYKCKVSNKALPAPIEKTISKAKGQPREPQVCTLPPSRDELTKNQVSLWCLVKGFYPSDIAVEWESNGQPENNYKTTPPVLDSDGSFFLYSKLTVDKSRWQQGNVFSCSVMHEALHNRYTQKSLSLSP light: DIVMTQSPLSLPVTPGEPASISCRSSQSLVHSNRNTYLHWYQQKPGQAPRLLIYKVSNRFSGVPDRFSGSGSGTDFTLKISRVEAEDVGVYYCGQGTQIPYTFGQGTKLEIKRTVAAPSVFIFPPSDEQLKSGTASVVCLLNNFYPREAKVQWKVDNALQSGNSQESVTEQDSKDSTYSLSSTLTLSKADYEKHKVYACEVTHQGLSSPVTKSFNRGEC | 0.66
GLS3000 V94K one-arm antibody (antibody, human IgG1, kappa, L234A L235A, N297A, name in Kabat numbering) heavy: QVQLVESGGGVVQPGRSLRLSCAASGFTFSNAWMHWVRQAPGKGLEWVAQIKAKSNNYATYYAESVKGRFTISRDDSKNSLYLQMNSLKTEDTAVYYCRYVHYGAYYGVDAWGQGTTVTVSSASTKGPSVFPLAPSSKSTSGGTAALGCLVKDYFPEPVTVSWNSGALTSGVHTFPAVLQSSGLYSLSSVVTVPSSSLGTQTYICNVNHKPSNTKVDKKVEPKSCDKTHTCPPCPAPEAAGGPSVFLFPPKPKDTLMISRTPEVTCVVVDVSHEDPEVKFNWYVDGVEVHNAKTKPREEQYASTYRVVSVLTVLHQDWLNGKEYKCKVSNKALPAPIEKTISKAKGQPREPQVYTLPPSRCELTKNQVSLSCAVKGFYPSDIAVEWESNGQPENNYKTTPPVLDSDGSFFLVSKLTVDKSRWQQGNVFSCSVMHEALHNHYTQKSLSLSPDYKDDDDK EPKSSDKTHTCPPCPAPELLGGPSVFLFPPKPKDTLMISRTPEVTCVVVDVSHEDPEVKFNWYVDGVEVHNAKTKPREEQYNSTYRVVSVLTVLHQDWLNGKEYKCKVSNKALPAPIEKTISKAKGQPREPQVCTLPPSRDELTKNQVSLWCLVKGFYPSDIAVEWESNGQPENNYKTTPPVLDSDGSFFLYSKLTVDKSRWQQGNVFSCSVMHEALHNRYTQKSLSLSP light: DIVMTQSPLSLPVTPGEPASISCRSSQSLVHSNRNTYLHWYQQKPGQAPRLLIYKVSNRFSGVPDRFSGSGSGTDFTLKISRVEAEDVGVYYCGQGTQKPYTFGQGTKLEIKRTVAAPSVFIFPPSDEQLKSGTASVVCLLNNFYPREAKVQWKVDNALQSGNSQESVTEQDSKDSTYSLSSTLTLSKADYEKHKVYACEVTHQGLSSPVTKSFNRGEC | 0.57

More lines, now with the values ahead:

ratio of amount bound vs unaltered GLS3000 | Binder
0.44 | GLS3000 V94L one-arm antibody (antibody, human IgG1, kappa, L234A L235A, N297A, name in Kabat numbering) heavy: QVQLVESGGGVVQPGRSLRLSCAASGFTFSNAWMHWVRQAPGKGLEWVAQIKAKSNNYATYYAESVKGRFTISRDDSKNSLYLQMNSLKTEDTAVYYCRYVHYGAYYGVDAWGQGTTVTVSSASTKGPSVFPLAPSSKSTSGGTAALGCLVKDYFPEPVTVSWNSGALTSGVHTFPAVLQSSGLYSLSSVVTVPSSSLGTQTYICNVNHKPSNTKVDKKVEPKSCDKTHTCPPCPAPEAAGGPSVFLFPPKPKDTLMISRTPEVTCVVVDVSHEDPEVKFNWYVDGVEVHNAKTKPREEQYASTYRVVSVLTVLHQDWLNGKEYKCKVSNKALPAPIEKTISKAKGQPREPQVYTLPPSRCELTKNQVSLSCAVKGFYPSDIAVEWESNGQPENNYKTTPPVLDSDGSFFLVSKLTVDKSRWQQGNVFSCSVMHEALHNHYTQKSLSLSPDYKDDDDK EPKSSDKTHTCPPCPAPELLGGPSVFLFPPKPKDTLMISRTPEVTCVVVDVSHEDPEVKFNWYVDGVEVHNAKTKPREEQYNSTYRVVSVLTVLHQDWLNGKEYKCKVSNKALPAPIEKTISKAKGQPREPQVCTLPPSRDELTKNQVSLWCLVKGFYPSDIAVEWESNGQPENNYKTTPPVLDSDGSFFLYSKLTVDKSRWQQGNVFSCSVMHEALHNRYTQKSLSLSP light: DIVMTQSPLSLPVTPGEPASISCRSSQSLVHSNRNTYLHWYQQKPGQAPRLLIYKVSNRFSGVPDRFSGSGSGTDFTLKISRVEAEDVGVYYCGQGTQLPYTFGQGTKLEIKRTVAAPSVFIFPPSDEQLKSGTASVVCLLNNFYPREAKVQWKVDNALQSGNSQESVTEQDSKDSTYSLSSTLTLSKADYEKHKVYACEVTHQGLSSPVTKSFNRGEC
0.44 | GLS3000 V94M one-arm antibody (antibody, human IgG1, kappa, L234A L235A, N297A, name in Kabat numbering) heavy: QVQLVESGGGVVQPGRSLRLSCAASGFTFSNAWMHWVRQAPGKGLEWVAQIKAKSNNYATYYAESVKGRFTISRDDSKNSLYLQMNSLKTEDTAVYYCRYVHYGAYYGVDAWGQGTTVTVSSASTKGPSVFPLAPSSKSTSGGTAALGCLVKDYFPEPVTVSWNSGALTSGVHTFPAVLQSSGLYSLSSVVTVPSSSLGTQTYICNVNHKPSNTKVDKKVEPKSCDKTHTCPPCPAPEAAGGPSVFLFPPKPKDTLMISRTPEVTCVVVDVSHEDPEVKFNWYVDGVEVHNAKTKPREEQYASTYRVVSVLTVLHQDWLNGKEYKCKVSNKALPAPIEKTISKAKGQPREPQVYTLPPSRCELTKNQVSLSCAVKGFYPSDIAVEWESNGQPENNYKTTPPVLDSDGSFFLVSKLTVDKSRWQQGNVFSCSVMHEALHNHYTQKSLSLSPDYKDDDDK EPKSSDKTHTCPPCPAPELLGGPSVFLFPPKPKDTLMISRTPEVTCVVVDVSHEDPEVKFNWYVDGVEVHNAKTKPREEQYNSTYRVVSVLTVLHQDWLNGKEYKCKVSNKALPAPIEKTISKAKGQPREPQVCTLPPSRDELTKNQVSLWCLVKGFYPSDIAVEWESNGQPENNYKTTPPVLDSDGSFFLYSKLTVDKSRWQQGNVFSCSVMHEALHNRYTQKSLSLSP light: DIVMTQSPLSLPVTPGEPASISCRSSQSLVHSNRNTYLHWYQQKPGQAPRLLIYKVSNRFSGVPDRFSGSGSGTDFTLKISRVEAEDVGVYYCGQGTQMPYTFGQGTKLEIKRTVAAPSVFIFPPSDEQLKSGTASVVCLLNNFYPREAKVQWKVDNALQSGNSQESVTEQDSKDSTYSLSSTLTLSKADYEKHKVYACEVTHQGLSSPVTKSFNRGEC
